To fix the notation:
B1: YPL212C 67-80 (peptide)
chain: PKEPRLPKRKVAVM
B2: YLR457C 288-301 (peptide)
chain: PASPTPPYRSRETE
B3: YMR058W 448-461 (peptide)
chain: PAFPEYPMRRDTLY
B4: YGR084C 87-100 (peptide)
chain: PLQPRPPVKPLSKQ
B5: YGL087C 66-79 (peptide)
chain: PNYPDSPPKVTFIS
B6: YDR178W 35-48 (peptide)
chain: PFLPVLPQKPGGVR
B7: YNL085W 152-165 (peptide)
chain: PIQPQEPFRHNTTI
B8: YGL060W 537-550 (peptide)
chain: PIMPTLPPRPYITI
B9: YJL005W 495-508 (peptide)
chain: PMSPGPPSKKDSRH
B10: YBR271W 27-40 (peptide)
chain: PKDPSSPQRDEILT
B11: YPL255W 118-131 (peptide)
chain: PIVPREPLRNEPTD
B12: YBR216C 239-252 (peptide)
chain: NYIPPDPPKDIQLN
B13: YEL023C 311-324 (peptide)
chain: PLIPDNPGRLLSSK
B14: YLR164W 27-40 (peptide)
chain: PFLPKIPQKPGGVS
B15: YLR213C 97-110 (peptide)
chain: NYQPKPPIREGNGP
B16: YER164W 1337-1350 (peptide)
chain: PNSPTPPLKSKVSR
B17: YHL007C 535-548 (peptide)
chain: PLPPIPPTKSKTSP
B18: YBL067C 285-298 (peptide)
chain: PNEPGAPSRLSFEN
B19: YBR036C 302-315 (peptide)
chain: PFIPKFPSRESVES

One assay addresses T1, Boi1 SH3 (BOI1_YEAST), P38041.
T1 chain: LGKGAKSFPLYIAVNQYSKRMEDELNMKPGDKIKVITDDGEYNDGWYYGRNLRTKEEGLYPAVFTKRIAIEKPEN
Briefly: SPOT array.
B1 yielded a normalised SPOT signal, Boehringer light units (BLU); mean over the file's lines of this peptide of 227.
Same read-out and setting: the same measure for B2: 51.2; for B3: 3190; for B4: 91.7.
Still for that read-out and setting: in the case of B5 it was 68.6; in that of B6, 49.9; in that of B7, 104.
Same read-out and setting: the same measure for B8: 31.6; for B9: 127; for B10: 138.
Consider B11, for which the normalised SPOT signal, Boehringer light units (BLU); mean over the file's lines of this peptide turned out to be 628.
On the same count and under the same terms, in the case of B12 it was 182; in that of B13, 94.5; in that of B14, 80.5.
The same measure, in the same setting: in the case of B15 it was 43.5; in that of B16, 170; in that of B17, 80.6.
Still for that read-out and setting: the same measure for B18: 104; for B19: 39.7.

Another assay concerns the target T2, Yhr016c SH3 (YSC84_YEAST), P32793.
T2 chain: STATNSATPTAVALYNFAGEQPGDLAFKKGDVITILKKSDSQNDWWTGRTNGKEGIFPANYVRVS
Briefly: SPOT array.
B1 registered a normalised SPOT signal, Boehringer light units (BLU); mean over the file's lines of this peptide of 39200.
Still for that read-out and setting: the same measure for B2: 729; for B3: 1930.
Molecule B4 showed a normalised SPOT signal, Boehringer light units (BLU); mean over the file's lines of this peptide of 128.
B5 gave a normalised SPOT signal, Boehringer light units (BLU); mean over the file's lines of this peptide of 260.
Still for that read-out and setting: in the case of B6 it was 338.
Same read-out and setting: in the case of B7 it was 52.8; in that of B8, 24900.
Same read-out and setting: the same measure for B9: 178; for B10: 0.
Take B11: the normalised SPOT signal, Boehringer light units (BLU); mean over the file's lines of this peptide turned out to be 5170.
Same read-out and setting: the same measure for B12: 79.4.
B13 yielded a normalised SPOT signal, Boehringer light units (BLU); mean over the file's lines of this peptide of 205.
Still for that read-out and setting: the same measure for B14: 173.
B15: the normalised SPOT signal, Boehringer light units (BLU); mean over the file's lines of this peptide is 156.
Still for that read-out and setting: in the case of B16 it was 164; in that of B17, 140.
Same read-out and setting: in the case of B18 it was 258; in that of B19, 1410.

Another assay has as its target T3, Boi2 SH3 (BOI2_YEAST), P39969.
T3 chain: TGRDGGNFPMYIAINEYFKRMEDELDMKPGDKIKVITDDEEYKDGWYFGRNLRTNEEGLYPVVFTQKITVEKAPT
Description: SPOT array.
B1 came in with a normalised SPOT signal, Boehringer light units (BLU); mean over the file's lines of this peptide of 28.3.
Still for that read-out and setting: the same measure for B2: 31; for B3: 82.5.
On the same count and under the same terms, the same measure for B4: 34.5; for B5: 76.3; for B6: 35.7.
Same read-out and setting: in the case of B7 it was 7.9; in that of B8, 87.6.
The molecule B9 displayed a normalised SPOT signal, Boehringer light units (BLU); mean over the file's lines of this peptide of 147.
B10 displayed a normalised SPOT signal, Boehringer light units (BLU); mean over the file's lines of this peptide of 156.
Still for that read-out and setting: the same measure for B11: 33300; for B12: 40.9; for B13: 48.5.
Still for that read-out and setting: the same measure for B14: 45.9.
Regarding B15, the normalised SPOT signal, Boehringer light units (BLU); mean over the file's lines of this peptide worked out at 53.8.
The same measure, in the same setting: in the case of B16 it was 40.1; in that of B17, 21; in that of B18, 71.5.
Same read-out and setting: in the case of B19 it was 70.4.

A further assay concerns the target T4, Rvs167 SH3 (RV167_YEAST), P39743.
T4 chain: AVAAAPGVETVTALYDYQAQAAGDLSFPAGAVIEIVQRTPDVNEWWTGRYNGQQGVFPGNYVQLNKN
Description: SPOT array.
As for B1, the normalised SPOT signal, Boehringer light units (BLU); mean over the file's lines of this peptide was 5510.
Still for that read-out and setting: in the case of B2 it was 13.1; in that of B3, 57.6.
With B4, the normalised SPOT signal, Boehringer light units (BLU); mean over the file's lines of this peptide worked out at 57.3.
Same read-out and setting: the same measure for B5: 12.5; for B6: 20; for B7: 20.4.
The same measure, in the same setting: in the case of B8 it was 5510; in that of B9, 138; in that of B10, 53.2.
On the same count and under the same terms, in the case of B11 it was 34500.
Molecule B12 came in with a normalised SPOT signal, Boehringer light units (BLU); mean over the file's lines of this peptide of 176.
On the same count and under the same terms, the same measure for B13: 42.7.
Same read-out and setting: in the case of B14 it was 50.1; in that of B15, 79.4; in that of B16, 25.
Still for that read-out and setting: the same measure for B17: 30.2; for B18: 52.4; for B19: 506.

For another assay, the target named is T5, Yfr024 SH3 (LSB3_YEAST), P43603.
T5 chain: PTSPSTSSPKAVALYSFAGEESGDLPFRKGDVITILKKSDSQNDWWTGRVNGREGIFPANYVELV
Description: SPOT array.
B1: the normalised SPOT signal, Boehringer light units (BLU); mean over the file's lines of this peptide is 38000.
Still for that read-out and setting: in the case of B2 it was 933; in that of B3, 5040.
Still for that read-out and setting: in the case of B4 it was 861; in that of B5, 87.1; in that of B6, 12700.
With B7, the normalised SPOT signal, Boehringer light units (BLU); mean over the file's lines of this peptide is 60.6.
The molecule B8 showed a normalised SPOT signal, Boehringer light units (BLU); mean over the file's lines of this peptide of 26100.
Same read-out and setting: the same measure for B9: 996; for B10: 6.2; for B11: 7410.
B12 returned a normalised SPOT signal, Boehringer light units (BLU); mean over the file's lines of this peptide of 254.
With B13, the normalised SPOT signal, Boehringer light units (BLU); mean over the file's lines of this peptide stood at 200.
On the same count and under the same terms, the same measure for B14: 2200; for B15: 114; for B16: 866.
The same measure, in the same setting: in the case of B17 it was 504; in that of B18, 34.7.
For B19, the normalised SPOT signal, Boehringer light units (BLU); mean over the file's lines of this peptide worked out at 2600.

For the origin of these results see paper PMC314469, “Protein Interaction Networks by Proteome Peptide Scanning” (PLoS Biology, 2004).
